Literature values in article doi:10.1101/2025.11.26.690829.

Target: TDP-43 NTD (Homo sapiens) (UniProt Q13148)

Kd: 2 µM
Substance: TDP-43 NTD (from UniProt Q13148)
